From paper PMC6353875 (2019) come the findings set out here.

For the experiment, the target named is EZH2 SRM-SANT1 (residues 141–251) (human, UniProt Q15910 141-251). Briefly: NMR.
EZH2 SRM-SANT1 (residues 141–251), sequence (Q15910 141-251): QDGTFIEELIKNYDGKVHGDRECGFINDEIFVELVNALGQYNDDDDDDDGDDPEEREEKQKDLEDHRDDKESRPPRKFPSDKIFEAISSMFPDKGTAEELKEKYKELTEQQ

B1: unmodified histone H2B peptide (residues 1–11) (peptide)
peptide: PEPAKSAPAPK
Take B1: the dissociation constant (Kd) (as a rule, a measure of binding affinity in units of concentration) was more than 5 mM.
